Where no end group is shown, it is not given here.
Experiments:
[1] = biological target: T1, Recombinant Human Epidermal Growth Factor (EGF) (human, UniProt P01133 971-1023); assay: dot blot, EGF spotted on nitrocellulose, biotinylated peptide in solution, detected with Streptavidin-HRP
T1 construct: Bought reagent; also called EGF protein
Protocol: EGF (1 microliter of a 10 nM solution in PBS was spotted a nitrocellulose membrane (obtained from Thermo Fisher Scientific) and the membrane was dried in air for about 30 minutes. The membrane was then incubated in 15 mL of blocking buffer (3 wt. % BSA in PBS) for one hour at room temperature. The membrane was washed three times (15 minutes for each wash) with 15 mL portions of fresh PBST. The washed membrane was incubated with Biotinylated SEQ ID NO: 1 [10 mL of a 10 ng/mL solution in blocking buffer (3 wt. % BSA in PBS)] with gentle agitation for one hour. The membrane was again washed three times (15 minutes for each wash) with 15 mL portions of fresh PBST. The washed membrane was incubated with Streptavidin-HRP [1:5000 dilution in 10 mL of the blocking buffer (3 wt. % BSA in PBS)] for 30 minutes with gentle agitation. Following the incubation, the membrane was washed three times (15 minutes for each wash) with 15 mL portions of fresh PBST. The washed membrane was incubated with 10 mL of the development solution for horseradish peroxidase (TMB-Blotting Substrate Solution, Pierce-Fisher Scientific) with gentle agitation. The color development was stopped by adding water. A dark spot developed at the application site on the membrane indicating affinity of SEQ ID NO: 1 for EGF.

[2] = biological target: T1, Recombinant Human Epidermal Growth …; assay: dot blot, peptide spotted on nitrocellulose, EGF in solution, detected with anti-EGF-IgG-HRP
Protocol: SEQ ID NO: 1 (1 microliter of a 10 nM solution in PBS containing 3 wt. % DMSO) and SEQ ID NO: 2 (1 microliter of a 10 nM solution in PBS containing 3 wt. % DMSO) were individually spotted at separate sites on a nitrocellulose membrane (obtained from Thermo Fisher Scientific, Waltham, Mass.) and the membrane was dried in air for about 30 minutes. The membrane was then incubated in 25 mL of blocking buffer (3 wt. % BSA in PBS) for one hour at room temperature. The membrane was washed three times (15 minutes for each wash) with 15 mL portions of fresh PBST. The washed membrane was incubated with EGF protein [10 microliters of a 100 ng/mL solution in blocking buffer (3 wt. % BSA in PBS)] with gentle agitation for one hour. The membrane was again washed three times (15 minutes for each wash) with 15 mL portions of fresh PBST. The washed membrane was incubated with anti-EGF-IgG-HRP [1:5000 dilution in 10 mL of the blocking buffer (3 wt. % BSA in PBS)] for one hour with gentle agitation. Following the incubation, the membrane was washed three times (15 minutes for each wash) with 15 mL portions of fresh PBST. The washed membrane was incubated with 10 mL of the development solution for horseradish peroxidase (TMB-Blotting Substrate Solution, Pierce-Fisher Scientific, Rockford, Ill.) with gentle agitation. The color development was stopped by adding water.

[3] = biological target: T2, Recombinant Human Tumor Necrosis Factor-alpha (TNF-alpha) (human, UniProt P01375 77-233); assay: SPR (Biacore 3000, CM5), peptide immobilised, TNF-alpha injected at 62.5-1000 nM, 25 C, 1:1 Langmuir global fit
T2 construct: Bought reagent; also called TNFα
T2 sequence (P01375 77-233 limits assumed): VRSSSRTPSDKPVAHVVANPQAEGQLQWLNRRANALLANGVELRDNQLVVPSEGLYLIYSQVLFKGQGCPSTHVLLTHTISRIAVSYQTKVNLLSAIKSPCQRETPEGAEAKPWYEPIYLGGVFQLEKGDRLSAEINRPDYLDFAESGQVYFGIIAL
Protocol: (§1) The following Test Method A was used for determining the binding affinity (KD) of SEQ ID NO: 1 for EGF and TNF-[…] Binding experiments were performed using Biacore 3000 optical biosensors equipped with research-grade CM5 sensor chips (GE Healthcare Bio-Sciences Corporation). The reagents used for the amine-coupling steps [(1-ethyl-3-(3-dimethylaminopropyl)-carbodiimide (EDC); N-hydroxysuccinimide (NHS); and ethanolamine hydrochloride-NaOH (1 M, pH 8.5)] were obtained from GE Healthcare Bio-Sciences Corporation. In order to efficiently immobilize the peptide on the sensor chips, a modified version of SEQ ID NO:1 was prepared by SPPS in which a “CK” amino acid linker sequence was added to the N-terminal end of the SEQ ID NO: 1 peptide (i.e. linker modified version of SEQ ID NO: 1 for immobilization being […]). A standard coupling protocol was employed to immobilize the linker modified version of SEQ ID NO: 1 via the lysine residue. The immobilization was performed at 25° C. using HBS-EP as the running buffer. The CM-dextran surfaces of the sensor chip flow cells were activated by a seven minute injection (20 microliters/minute) of freshly prepared 1:1 50 mM NHS: 200 mM EDC. A solution of linker modified SEQ ID NO: 1 in acetic acid (20 mM, pH 5.5) was injected to target 200 response units (RU). […]

[4] = biological target: T1, Recombinant Human Epidermal Growth …; assay: SPR (Biacore 3000, CM5), peptide immobilised, EGF injected at 62.5-1000 nM, 25 C, 1:1 Langmuir global fit
Protocol: as §1

[5] = biological target: T2, Recombinant Human Tumor Necrosis …; assay: SPR (Test Method A of Example 3), peptide immobilised, TNF-alpha injected
Protocol: as §1

[6] = biological target: T1, Recombinant Human Epidermal Growth …; assay: SPR (Test Method A of Example 3), peptide immobilised, EGF injected
Protocol: as §1

T1 sequence (P01133 971-1023 limits assumed): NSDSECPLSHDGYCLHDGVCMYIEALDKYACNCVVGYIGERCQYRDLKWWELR

B1: Biotinylated SEQ ID NO: 1 (peptide)
peptide: WFEWPYWEMNVPDVWN
modifications: also: biotinylated, site not given here
[1]
  binding result: binds

B2: peptide SEQ ID NO: 2 (WFEWPYWE) (peptide)
peptide: Ac-WFEWPYWE-NH2
notes: Chemically synthesised (SPPS)
[2]
  binding result: binds

B3: linker modified version of SEQ ID NO: 1 (CKWFEWPYWEMNVPDVWN) (peptide)
peptide: CKWFEWPYWEMNVPDVWN
modifications: also: amine-coupled to CM5 sensor chip via Lys of CK linker
[3]
  Kd: 75.1 µM
[4]
  Kd: 0.087 µM

B4: linker modified version of SEQ ID NO: 2 (CKWFEWPYWE) (peptide)
peptide: CKWFEWPYWE
modifications: also: immobilised on CM5 sensor chip via Lys of linker, conjugated to iodoacetyl magnetic beads via Cys of linker
[5]
  Kd: 340 µM
[6]
  Kd: 0.466 µM

B5: peptide SEQ ID NO: 1 (WFEWPYWEMNVPDVWN) (peptide)
peptide: Ac-WFEWPYWEMNVPDVWN-NH2
notes: Chemically synthesised (SPPS)
[2]
  binding result: binds

Reference: patent publication US20200123212A1 (3M INNOVATIVE PROPERTIES, published 2020)
